Experimental data: PMC12741062 (Frontiers in Immunology, 2025)

B1: Nb72 (VHH)
VHH: LQKAGGVSEQAGASLRLSCVLSARIYGRCCLLWFRQDPGNREGISSINTDGKTSYTDSGKDRFTVSQYTDYNILQLQMNSLKPDDTAVYYCGATERVGDICTEYKYRGQGTQVTVSS
B2: Nb70 (VHH)
VHH: LQESGGGSVQAGGSLRLSCTASTFTYISLYMGWFRQAPGKEREGVAGIYAGGGDTYYADSVKGRFTISQDDAKRTVYLQMNSLKPEDTAMYYCAADRGPSRWDFRSWGQGTQVTVSS
B3: Nb27 (VHH)
VHH: LQESGGGSVQAGGSLKLSCAASGPIFRRCGMGWYRQAPGKEREVVSGINDAGTASYADSVKGRFTISQDNAKNMLYLQMNSLKTEDTAVYYCAGRKYYDVGNYCSVDLYWGQGTQVTVSS
B4: Nb85 (VHH)
VHH: LQESGGGSVQAGGSLRLSCVSSEYSGTIFAMGWFRQAPGKEREGVAVVDSAITKHYADSVKGRFTISRDNAKNRLDLQMDSLKPEDTGMYYCARSRGYLAGASATLRPTNYDDWGQGTQVTVSS
B5: Nb67 (VHH)
VHH: LQESGGGLVQAGGSLRLSCTASGLNVDNYEMGWFRQAPGKEREGIAQISCSGAMTYYADSVKGRFTISRDNAKKTLYLQMNSLTPEDTAMYYCAAQTRVCGLWTSRGPEMESDFDAWGQGTQVTVSS
B6: TAT-Nb91 recombinant protein (VHH)
VHH: LQESGGGSVQAGGSLKLSCAASGSTFNSCGMGWYRQVPGKERELVSTISDSDTTTYADAVKGRFSISQDKTKNTLYLQMNSLKTEDTARYYCAARSIFAERVCSIHFDSWGQGTQVTVSS
notes: TAT cell-penetrating peptide from HIV; Linker; VHH of Nb91, as the VHH of m11; About 19 kDa; The primers carry HindIII and XhoI sites; also called TAT-Nb91-His; not shown: His6, C-terminal, kept

biological target: T1, BVDV NS4B-His recombinant protein (Bovine viral diarrhea virus 1, GenBank …); experiment: ELISA; iELISA; NS4B-His or the control BVDV-NS5A-His as coating antigen; the nine nanobodies added; anti-E-tag detection; details: one partner purified
T1 construct: also called recombinant NS4B protein

Row | Binder | binding result
1 | B1 | binds
2 | B2 | binds
3 | B3 | binds
4 | B4 | binds
5 | B5 | binds

biological target: T2, BVDV NS4B-His recombinant protein (Bovine viral diarrhea virus 1, GenBank …, UniProt A0A068L3P0); experiment: ELISA; iELISA; 96-well plates coated with NS4B protein (400 ng/well); incubated with TAT-Nb91 or Nb91; anti-camel serum (1:2,000) and HRP-conjugated secondary antibody; OD 450 nm; details: both partners purified
T2 construct: also called recombinant NS4B protein

Row | Binder | binding result
6 | B6 | binds
